From IntAct's records for PubMed 21763481

B1: B9 domain-containing protein 2 (Mus musculus), Q3UK10 (parent)
chain: MAEVHVIGQIIGATGFSESSLFCKWGIHTGAAWKLLSGVREGQTQVDTPQIGDMAYWSHPIDLHFATKGLQGWPRLHLQVWSQDSFGRCQLAGYGFCHVPSSPGTHQLDCPTWRPLGSWREQLARAFVGGGPQLLHADTIYSGADRYRLHTAAGGTVHLGIGLLLRHFDRYGVEC
partner: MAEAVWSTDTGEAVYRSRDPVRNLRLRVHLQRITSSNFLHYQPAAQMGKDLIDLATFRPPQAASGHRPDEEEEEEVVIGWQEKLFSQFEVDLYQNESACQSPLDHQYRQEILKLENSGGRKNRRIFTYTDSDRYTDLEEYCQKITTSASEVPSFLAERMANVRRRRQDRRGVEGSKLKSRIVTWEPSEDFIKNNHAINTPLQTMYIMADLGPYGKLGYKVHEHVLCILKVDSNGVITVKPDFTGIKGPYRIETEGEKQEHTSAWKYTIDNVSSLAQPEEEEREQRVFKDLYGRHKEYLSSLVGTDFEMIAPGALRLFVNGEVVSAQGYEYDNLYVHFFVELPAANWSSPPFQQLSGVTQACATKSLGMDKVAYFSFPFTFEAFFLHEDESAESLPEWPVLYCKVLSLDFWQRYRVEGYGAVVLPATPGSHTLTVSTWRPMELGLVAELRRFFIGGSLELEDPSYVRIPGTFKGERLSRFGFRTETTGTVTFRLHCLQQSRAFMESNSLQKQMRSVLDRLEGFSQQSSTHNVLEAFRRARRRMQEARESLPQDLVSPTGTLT
B2: B9 domain-containing protein 2 (Mus musculus), Q3UK10 (parent)
chain: B1 chain
partner: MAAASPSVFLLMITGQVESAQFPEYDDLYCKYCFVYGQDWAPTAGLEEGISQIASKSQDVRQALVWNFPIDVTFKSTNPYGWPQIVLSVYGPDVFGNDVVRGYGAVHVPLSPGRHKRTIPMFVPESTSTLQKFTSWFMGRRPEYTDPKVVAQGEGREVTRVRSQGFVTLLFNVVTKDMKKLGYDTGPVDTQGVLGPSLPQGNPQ

Variants of: B1
Details: with mks1_mouse Mks1, Q5SW45

| effect of a mutation on the interaction | Variant |
| --- | --- |
| disrupting interaction | S101R |

Variants of: B2
Details: with b9d1_mouse B9d1, Q9R1S0

| effect of a mutation on the interaction | Variant |
| --- | --- |
| with no effect | S101R |
